Common to all, as to test: co-IP
The target of assay [1] is Flag-tagged glycogen phosphorylase (GP), wild type (human) (UniProt P06737).
Assay [2] deals with Flag-tagged glycogen phosphorylase K470Q/K796Q (GP^K2Q) (human) (UniProt P06737).
Assay [3] has as its target Flag-tagged glycogen phosphorylase (GP), wild type (human) (UniProt P06737). The source holds these as a separate data set.

For “HA-tagged protein phosphatase 1 alpha (HA-PP1α) (from UniProt P62136 1-330) (enzyme)”, the increase of the co-precipitate with NAM+TSA against untreated cells in assay [1] was more than 100%. Besides, in assay [2], the PP1α co-immunoprecipitated, against wild type GP was determined as 2 fold.

B1: HA-tagged hepatic glycogen binding subunit GL of PP1 (HA-GL) (natural protein)
chain: MMAVDIEYRYNCMAPSLRQERFAFKISPKPSKPLRPCIQLSSKNEASGMVAPAVQEKKVKKRVSFADNQGLALTMVKVFSEFDDPLDMPFNITELLDNIVSLTTAESESFVLDFSQPSADYLDFRNRLQADHVCLENCVLKDKAIAGTVKVQNLAFEKTVKIRMTFDTWKSYTDFPCQYVKDTYAGSDRDTFSFDISLPEKIQSYERMEFAVYYECNGQTYWDSNRGKNYRIIRAELKSTQGMTKPHSGPDLGISFDQFGSPRCSYGLFPEWPSYLGYEKLGPYY
In turn, B1 displayed an increase of the co-precipitate in 25 mM glucose against glucose free medium in assay [3] of 100%.

The values above are taken from article PMC3285296.
